# In US20210138049A1:
# Where “and” joins values, the source holds several entries; their conditions need not be identical. Identical values can stand only once.
# Key:
# β-Syn (103-134) peptide = assay: peptide ELISA, serum, 0 w
# [1] = target: α-Synuclein 91-140 peptide (human); assay: peptide ELISA, serum, 0 w
substance,measurement,setting,value
preimmune guinea pig serum / antibodies purified from preimmune serum of naïve guinea pigs (antibody),ELISA Log10 Titer,β-Syn (103-134) peptide,0.1 Log10 titer
same,ELISA Log10 Titer,[1],0.1 Log10 titer and 0.2 Log10 titer and 0.3 Log10 titer
